Among the data in US20180155451A1 (published 2018) are He/Con_1a and He/Con_2aR values, retold here.

The target of one assay is T1, FcγRIa (human, UniProt P12314 16-292).
T1 construct: extracellular domain; also called FcgRI; CD64
The assay is described as follows: SPR; vs GpH7-A5/GpH7-B3/GpL16-k0=100. On the technique in general: In SPR one partner is held on a chip, and binding of the other changes the refractive index at the surface.

A further assay concerns the target T2, FcγRIIa R (human, UniProt P12318 34-217).
T2 construct: extracellular domain; also called FcgRIIa R type; 2aR
T2 sequence (looked up): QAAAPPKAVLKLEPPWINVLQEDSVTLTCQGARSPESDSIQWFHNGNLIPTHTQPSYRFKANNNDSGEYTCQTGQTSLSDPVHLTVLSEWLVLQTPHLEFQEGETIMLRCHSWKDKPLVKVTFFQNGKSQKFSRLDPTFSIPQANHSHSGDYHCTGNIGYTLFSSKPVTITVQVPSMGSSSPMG
The assay is described as follows: SPR Biacore; vs GpH7-A5/GpH7-B3/GpL16-k0 =100.

T1 sequence (P12314 16-292): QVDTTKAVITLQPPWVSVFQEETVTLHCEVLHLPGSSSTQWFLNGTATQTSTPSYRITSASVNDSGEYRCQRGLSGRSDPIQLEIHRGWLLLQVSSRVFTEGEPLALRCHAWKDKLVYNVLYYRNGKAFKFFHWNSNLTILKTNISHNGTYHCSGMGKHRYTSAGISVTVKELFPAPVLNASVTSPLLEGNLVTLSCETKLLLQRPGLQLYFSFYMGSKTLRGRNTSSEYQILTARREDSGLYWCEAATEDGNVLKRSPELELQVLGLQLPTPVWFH

B1: GpH7-A5/GpH7-B3 variant K326_15Y/GpL16-k0 (antibody, human IgG1, kappa)
heavy 1: not shown
heavy 2: not shown
light: DIVMTQSPLSLPVTPGEPASISCQASESLVHSNRNTYLHWYLQKPGQSPQLLIYKVSNRFSGVPDRFSGSGSGTDFTLKISRVEAEDVGVYYCSQNTHVPPTFGQGTKVEIERTVAAPSVFIFPPSDEQLKSGTASVVCLLNNFYPREAKVQWKVDNALQSGNSQESVTEQDSKDSTYSLSSTLTLSKADYEKHKVYACEVTHQGLSSPVTKSFNRGEC
notes: heterodimerized; also called He Ab K326_15Y
With B1, in the assay with FcγRIa, the He/Con_1a is 106 % of control.

B2: GpH7-A5/GpH7-B3 variant N325_06M/GpL16-k0 (antibody, human IgG1, kappa)
heavy 1: not shown
heavy 2: not shown
light: B1 light
notes: also called He Ab N325_06M
In the case of B2, the He/Con_2aR in the assay with FcγRIIa R was 152 % of control.

B3: GpH7-A5/GpH7-B3 variant P271_04F/GpL16-k0 (antibody, human IgG1, kappa)
heavy 1: not shown
heavy 2: not shown
light: B1 light
notes: heterodimerized; also called He Ab P271_04F
Regarding B3, the He/Con_1a with FcγRIa was 102 % of control.

B4: GpH7-A5/GpH7-B3 variant G237_04F/GpL16-k0 (antibody, human IgG1, kappa)
heavy 1: not shown
heavy 2: not shown
light: B1 light
notes: also called He Ab G237_04F
Consider B4, for which, in the assay with FcγRIIa R, the He/Con_2aR is 126 % of control.

B5: GpH7-A5/GpH7-B3 variant K334_10E/GpL16-k0 (antibody, human IgG1, kappa)
heavy 1: not shown
heavy 2: not shown
light: B1 light
notes: heterodimerized; also called He Ab K334_10E
Take B5: the He/Con_1a with FcγRIa is 110 % of control.

B6: GpH7-A5/GpH7-B3 variant K326_16H/GpL16-k0 (antibody, human IgG1, kappa)
heavy 1: not shown
heavy 2: not shown
light: B1 light
notes: heterodimerized; also called He Ab K326_16H
Turning to B6, the He/Con_1a in the assay with FcγRIa is 103 % of control.

B7: GpH7-A5/GpH7-B3 variant P238_03V/GpL16-k0 (antibody, human IgG1, kappa)
heavy 1: not shown
heavy 2: not shown
light: B1 light
notes: heterodimerized; also called He Ab P238_03V
As for B7, the He/Con_1a with FcγRIa is 100 % of control.

B8: GpH7-A5/GpH7-B3 variant G237_06M/GpL16-k0 (antibody, human IgG1, kappa)
heavy 1: not shown
heavy 2: not shown
light: B1 light
notes: also called He Ab G237_06M
On to B8, for which the He/Con_2aR with FcγRIIa R is 133 % of control.

B9: GpH7-A5/GpH7-B3 variant A327_10E/GpL16-k0 (antibody, human IgG1, kappa)
heavy 1: not shown
heavy 2: not shown
light: B1 light
notes: also called He Ab A327_10E
Take B9: the He/Con_2aR in the assay with FcγRIIa R is 110 % of control.

B10: GpH7-A5/GpH7-B3 variant P238_10E/GpL16-k0 (antibody, human IgG1, kappa)
heavy 1: not shown
heavy 2: not shown
light: B1 light
notes: heterodimerized; also called He Ab P238_10E
In the case of B10, in the assay with FcγRIa, the He/Con_1a is 102 % of control.

B11: GpH7-A5/GpH7-B3 variant A330_19Q/GpL16-k0 (antibody, human IgG1, kappa)
heavy 1: not shown
heavy 2: not shown
light: B1 light
notes: also called He Ab A330_19Q
For B11, the He/Con_2aR with FcγRIIa R is 104 % of control.

B12: GpH7-A5/GpH7-B3 variant L234_10E/GpL16-k0 (antibody, human IgG1, kappa)
heavy 1: not shown
heavy 2: not shown
light: B1 light
notes: heterodimerized; also called He Ab L234_10E; GpH7-A5/GpH7-B16/GpL16-k0
Take B12: in the assay with FcγRIa, the He/Con_1a was 100 % of control.

B13: GpH7-A5/GpH7-B3 variant E333_04F/GpL16-k0 (antibody, human IgG1, kappa)
heavy 1: not shown
heavy 2: not shown
light: B1 light
notes: also called He Ab E333_04F
With B13, the He/Con_2aR with FcγRIIa R was 102 % of control.

B14: GpH7-A5/GpH7-B3 variant P271_13S/GpL16-k0 (antibody, human IgG1, kappa)
heavy 1: not shown
heavy 2: not shown
light: B1 light
notes: heterodimerized; also called He Ab P271_13S
In the case of B14, in the assay with FcγRIa, the He/Con_1a was 102 % of control.

B15: GpH7-A5/GpH7-B3 variant P271_07I/GpL16-k0 (antibody, human IgG1, kappa)
heavy 1: not shown
heavy 2: not shown
light: B1 light
notes: heterodimerized; also called He Ab P271_07I
In the case of B15, in the assay with FcγRIa, the He/Con_1a was 102 % of control.

B16: GpH7-A5/GpH7-B3 variant P271_20W/GpL16-k0 (antibody, human IgG1, kappa)
heavy 1: not shown
heavy 2: not shown
light: B1 light
notes: heterodimerized; also called He Ab P271_20W
As for B16, in the assay with FcγRIa, the He/Con_1a was 103 % of control.

B17: GpH7-A5/GpH7-B3 variant G237_02A/GpL16-k0 (antibody, human IgG1, kappa)
heavy 1: not shown
heavy 2: not shown
light: B1 light
notes: also called He Ab G237_02A
Turning to B17, the He/Con_2aR in the assay with FcγRIIa R was 126 % of control.

B18: GpH7-A5/GpH7-B3 variant A330_15Y/GpL16-k0 (antibody, human IgG1, kappa)
heavy 1: not shown
heavy 2: not shown
light: B1 light
notes: also called He Ab A330_15Y
As to B18, the He/Con_2aR with FcγRIIa R is 102 % of control.

B19: GpH7-A5/GpH7-B3 variant L234_04F/GpL16-k0 (antibody, human IgG1, kappa)
heavy 1: not shown
heavy 2: not shown
light: B1 light
notes: heterodimerized; also called He Ab L234_04F
In the case of B19, the He/Con_1a with FcγRIa was 101 % of control.

B20: GpH7-A5/GpH7-B3 variant L234_03V/GpL16-k0 (antibody, human IgG1, kappa)
heavy 1: not shown
heavy 2: not shown
light: B1 light
notes: heterodimerized; also called He Ab L234_03V
For B20, the He/Con_1a in the assay with FcγRIa was 104 % of control.

B21: GpH7-A5/GpH7-B3 variant P271_03V/GpL16-k0 (antibody, human IgG1, kappa)
heavy 1: not shown
heavy 2: not shown
light: B1 light
notes: heterodimerized; also called He Ab P271_03V
Turning to B21, the He/Con_1a in the assay with FcγRIa was 102 % of control.

B22: GpH7-A5/GpH7-B3 variant E269_09D/GpL16-k0 (antibody, human IgG1, kappa)
heavy 1: not shown
heavy 2: not shown
light: B1 light
notes: also called He Ab E269_09D
For B22, the He/Con_2aR with FcγRIIa R was 105 % of control.

B23: GpH7-A5/GpH7-B3 variant P238_04F/GpL16-k0 (antibody, human IgG1, kappa)
heavy 1: not shown
heavy 2: not shown
light: B1 light
notes: heterodimerized; also called He Ab P238_04F
Consider B23, for which the He/Con_1a in the assay with FcγRIa is 101 % of control.

B24: GpH7-A5/GpH7-B3 variant E333_05P/GpL16-k0 (antibody, human IgG1, kappa)
heavy 1: not shown
heavy 2: not shown
light: B1 light
notes: also called He Ab E333_05P
Consider B24, for which the He/Con_2aR with FcγRIIa R is 105 % of control.

B25: GpH7-A5/GpH7-B3 variant A330_05P/GpL16-k0 (antibody, human IgG1, kappa)
heavy 1: not shown
heavy 2: not shown
light: B1 light
notes: also called He Ab A330_05P
Turning to B25, the He/Con_2aR in the assay with FcγRIIa R was 115 % of control.

B26: GpH7-A5/GpH7-B3 variant P271_06M/GpL16-k0 (antibody, human IgG1, kappa)
heavy 1: not shown
heavy 2: not shown
light: B1 light
notes: heterodimerized; also called He Ab P271_06M
On to B26, for which the He/Con_1a with FcγRIa is 102 % of control.

B27: GpH7-A5/GpH7-B3 variant K334_20W/GpL16-k0 (antibody, human IgG1, kappa)
heavy 1: not shown
heavy 2: not shown
light: B1 light
notes: heterodimerized; also called He Ab K334_20W
On to B27, for which the He/Con_1a with FcγRIa was 106 % of control.
